Target: T1, recombinant human DAF (human, UniProt P08174 35-353, limits assumed)
T1 construct: also called recombinant human decay accelerating factor; CD55
T1 sequence (looked up): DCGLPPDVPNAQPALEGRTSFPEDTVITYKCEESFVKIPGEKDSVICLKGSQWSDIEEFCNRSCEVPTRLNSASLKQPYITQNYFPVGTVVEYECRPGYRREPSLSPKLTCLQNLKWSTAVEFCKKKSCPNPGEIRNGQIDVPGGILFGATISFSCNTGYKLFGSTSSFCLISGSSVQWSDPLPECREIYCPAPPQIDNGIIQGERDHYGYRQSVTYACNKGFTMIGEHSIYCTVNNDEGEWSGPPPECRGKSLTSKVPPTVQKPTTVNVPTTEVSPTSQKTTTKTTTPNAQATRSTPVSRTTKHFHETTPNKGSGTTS
Experiment: SPR (BIACORE 1000), recombinant human DAF on CM-5 chip, LU30 scFv 25-100 nM injected

B1: LU30 scFv fragment (scFv, V domains shown)
VH: QVKLQESGGGLVQPGGSLKLSCAASGFTFSGYGMSWIRQTPDKRLEWVATINSGGSYTYYSDSVKGRFTISRDNVKNTLYLQMSSLKSEDTAMYYCARRNGTLYYYLMDYWGRGTLVTVSS
VL: QSVLTQPPSASGSPGQSVTISCTGTSSDVGGYNYVSWYQQHPGKAPKFMIYDVSKRPSGVSNRFSGSKSGNTASLTISGVQAEDEADYYCSSYTSASTVIFGGGTKLTVL
notes: Human scFv from a naive phage library (Vaughan et al.), secreted from E. coli and purified by its His tag; The full scFv is said to be under GenBank AF117206; also called clone LU30
Question: With B1 as the binder, how does the Kd read?
Answer: 13 nM

Question: And the koff?
Answer: 0.0045 s⁻¹

Question: What about the kon of the same binder?
Answer: 340000 M⁻¹ s⁻¹

— patent EP1591456A1 (Genentech Inc., dated 2005)
